Measurements published in patent US8592138B2, “Methods for improving sperm functionality” (Androgenix Ltd., priority 2010, dated 2013).

B1: PDC-109: bovine seminal plasma protein purified by ion exchange chromatography; SEQ ID NO: 1 (protein, listed as Bos taurus)
chain: MALQLGLFLIWAGVSVFLQLDPVNGDQDEGVSTEPTQDGPAELPEDEECVFPFVYRNRKHFDCTVHGSLFPWCSLDADYVGRWKYCAQRDYAKCVFPFIYGGKKYETCTKIGSMWMSWCSLSPNYDKDRAWKYC
B2: aSFP: acidic seminal fluid protein, bovine spermadhesin; SEQ ID NO: 4 (protein, listed as Bos taurus)
chain: MKLSSVIPWALLLSTATVDSMDWLPRNTNCGGILKEESGVIATYYGPKTNCVWTIQMPPEYHVRVSIQYLQLNCNKESLEIIDGLPGSPVLGKICEGSLMDYRSSGSIMTVKYIREPEHPASFYEVLYFQDPQA
B3: BSP-A3: bovine seminal plasma protein; SEQ ID NO: 2 (protein, listed as Bos taurus)
chain: MALRLGLFLIWAGVSMFLQLDPVNGDEQLSEDNVILPKEKKDPASGAETKDNKCVFPFIYGNKKYFDCTLHGSLFLWCSLDADYTGRWKYCTKNDYAKCVFPFIYEGKSYDTCIIIGSTFMNYWCSLSSNYDEDGVWKYC

Tests used:
sperm cells = experiment: Flow cytometry of pegylated seminal proteins binding to sperm; type: cell-based, bovine; conditions: 1 μg/mL pegylated SP protein, 30 min at 28° C.
Procedure: (§1) NHS-dPEG4-Biotin was resuspended in H2O. Two hundred micrograms of PDC-109, BSP-A3, BSP-30 kDa and aSFP, were mixed in molar ratios of 1:5, 1:20, 1:40 and 1:60 with NHS-dPEG4Biotin and incubated for 30 min at room temperature. The reaction was stopped by the addition of 1M Tris-HCl pH7.4 at a final concentration of 25 mM. Pegylated proteins were dialysed against PBS to remove excess PEG. Pegylation was assessed by SDS-PAGE with Coomassie Blue staining. […] Western blots with labelled streptavidin supported this conclusion.
Sperm cells were prepared by centrifugation of fresh ejaculate containing extender through a 60% Percoll™ PLUS gradient followed by one wash in NCM. The sperm cells were then incubated for 30 min at 28° C. with 1 μg/mL of each of the pegylated SP proteins. After incubation with the pegylated SP proteins, cells were washed once, streptavidin-alexa fluor 488 was added to the cells and they were incubated for a further 30 min at 37° C. Flow cytometry analysis was then conducted.

Bovine sperm cells = experiment: Fluorescence microscopy of pegylated seminal proteins binding to sperm; type: cell-based; conditions: pegylated/biotinylated SP protein, 37° C. for 30 min in NCM
Procedure: as §1
Bovine sperm cells from liquid extended semen were percoll-purified and washed in non-capacitating media (NCM; Table 3 below) with addition of 0.1% PEG (MW 600, Serva). The cells were incubated with pegylated/biotinylated SP proteins in NCM at 37° C. for 30 min, and centrifuged once to remove the supernatant. Cell pellets were resuspended in NCM containing streptavidin-alexa fluor 488 and LIVE/DEAD fixable far red dye, and incubated at 37° C. for 1 hr. Cells were washed once in NCM, and resuspended in NCM to a final concentration close to 10^7 cells/ml. DAPI was added to cells, and 10^5 cells were placed onto Superfrost plus slide. The sperm cells were studied with a Leica DMRE microscope equipped with a Leica DC500 camera, a fluorescent ebq 100 lamp and interchangeable filter sets.

Row | Molecule | Binding to sperm cells (right-shift in the histogram vs streptavidin-alexa fluor 488 alone) (sperm cells) | Fluorescent signal on sperm (streptavidin-alexa fluor 488) (Bovine sperm cells)
1 | B1 | demonstrated binding to sperm cells | 
2 | B2 |  | strong fluorescent signal in the acrosomal cap part of sperm head
3 | B3 | demonstrated binding to sperm cells | 
